41 sequences from the nanobody polyreactivity screen of Harvey et al. (2022) can be followed below.

This series can be described thus: yeast display, Sf9 membrane polyspecificity reagent, FACS + sequencing; frameworks hold sequencing errors. The gist of the method:
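Galactose induction of a Saccharomyces cerevisiae BJ5465 synthetic nanobody display library ran 36–48 hours. The cells were then stained for 1 hour at 4 °C with 10% biotinylated, detergent-solubilized Sf9 membrane reagent, pulled down on streptavidin microbeads and FACS-sorted into low and high (top ~1%) gates on expression and reagent-binding fluorescence. Labels for polyreactivity follow the gate of origin.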
On to “QVQLVESGGGLVQAGGSLRLSCAASGFTFSAYTMGWYRQAPGKESELVAAINWSGANTYYADSVKGRFTISRDNAKNTVYLQMNSLKPEDTAVYFCNAEDDYTYDRSFGGYKYDYWGQGTQVTVSS”, for which the “polyreactivity (PSR sort gate)” value is recorded as “low polyreactivity”.
With “QVQLVESGGRLVQAGGSLRLSCAASGSTFNRYAMGWYRQAPGKERELVAAISRGGSTTYADSVKGRFTISRDNAKHTVYLQMYSLKPEDTAVYYCAALYYSPRYWYDYWGLGTQVTVSS”, the “polyreactivity (PSR sort gate)” value is “high polyreactivity”.
As for “QVQLVESGGCLVQAGGSLRLTCAASGSTFDRKARGWYRQAPGKERELVAAITKSGGSTYYADSVKGRFTISRDNAKNTVYLQMNSLKPEDTAVYYCKEFYRAVYPYYYWGQGTQVTVSS”, the “polyreactivity (PSR sort gate)” value was “low polyreactivity”.
Regarding “QVQLVESGGGLVQAGGSLRLSCAASGSTFYIYAMGWYRQAPGKERELVADITWSGGSTYYADSVKGRFTISRDNAKNTVYLQMNSLKPEDTAVYYCATDSWFGLEYWGQCTQVTVSS”, the “polyreactivity (PSR sort gate)” value is on record as “high polyreactivity”.
“QVQLVESGGGLVQAGGSLRLSCAASGRIFYVNTMGWYRQAPGKERELVATISSAASTNYADSVKGRFTISRDNAKNTVYLQMNSLKPEDTAVYYCNAAFYKEYFYWGQGTQVTVSS”: the “polyreactivity (PSR sort gate)” value is given as “low polyreactivity”.
On to “QVQLVESGGGLVQAGGSLRLSCAASGSILYGNAMGWYRQAPGKERELVAAITTSGGRTYYADSVKGRFTISRDNAKNTVYLQLTSLKPEDTAVYYCAAASPTPVNWSGRDYYYWGQGTQVTVSS”, for which the “polyreactivity (PSR sort gate)” value was “high polyreactivity”.
Regarding “QVQLVESGGGLVQAGGSLRLSCAASGSTFYRNTMGWYRQAPGKERELVAAIRRSGSSTYYADSVKGRFTISRDNAKNTVYLQMNSLKPDDTAVYYCAKEGLSYRYYYCGQGTQVTVSS”, the “polyreactivity (PSR sort gate)” value is reported as “high polyreactivity”.
For “QVQLVESGGGLVQAGGSLRLSCAASGRTFLTNAMGWYRQAPGKERELVAAITSSGGNTYYADSVKGRFTISRDNAKNTVYLQMNSLKPEDTAVYYCAAPGYVWYGGRWVYRYYYWGQGTQVTVSS”, the “polyreactivity (PSR sort gate)” value is “high polyreactivity”.
In the case of “QVQLVESGGGLVQAGGSLRLSCAASGRIFAGYAMGWYRQAPGTERELVATITRGGSTNYADSVKRPFTISRDNAKNTVYLQMNSLKPEDTAVYYCNADIRRHGGYAHEYWGQGTKVTVSS”, the “polyreactivity (PSR sort gate)” value is reported as “low polyreactivity”.
Regarding “QVQLVESGGGLVQAGGSLRLSCAASGITFFTYAMGWYRQAPGKEREFVATISYGGGSTYYADSVKGRFTISRDNAKNTVYLQMNSLKPEDTAVYYCNAEGYVPTYFQHYAYWGQGTQVTVSS”, the “polyreactivity (PSR sort gate)” value is reported as “low polyreactivity”.
“QVQLVESGGGLVQAGGSLRLSCAASGRTFWYNAMGWYRQAPGKERELVAVISSGAITYYADSVKGRFTISRDNAKNTVYLQMNSLKPEDTAVYYCAARSYLSLIDYWGQGTQVTVSS”: the “polyreactivity (PSR sort gate)” value is “high polyreactivity”.
Take “QVQLVESGGGLVQAGGSLRLSCAASGSTFHNYAMGWYRQAPGKERELVAGISVRGGGTYYADSVKGRFTISRDNAKNNVYLQMNSLKPEDTAVYYCAKRSRYYYRYDYWGQGSQVTVSS”: the “polyreactivity (PSR sort gate)” value is “high polyreactivity”.
Take “QVQLVESGGGLVQAGGSLRLSCAASGGTIGSNTMGWYRQAPGKERELVAAITSGVSTNYADSVKGRFTISRDNAKNTVYLQMISLKPEDNAVYYCAKVLWSEEYETIITSYGFDYWGQGTQVTVSS”: the “polyreactivity (PSR sort gate)” value is “low polyreactivity”.
For the sequence “QVQLVESGGRLVQAGGSLRLSCAASGITFNVYAMGWYRQEPGKERELVAAITSSGATTYYADSVKGRFTISRDNAKNTVYLQMNSLKPEDTSVYYCAAKLSTRRYKYDYWGQGTQVTVSS”, the “polyreactivity (PSR sort gate)” value is on record as “high polyreactivity”.
“QVQLVESGGVLVQAGGSLRLSCAASGRTFFRYTMGWYRPAPGKERELVAAISRSDGSTYYADSVKGRFTISRDNAKNTVYLQMNSLKPEDTAVYYCAKSLPSGYYYWGQGTQVTVSS”: the “polyreactivity (PSR sort gate)” value was “low polyreactivity”.
Turning to “QVQLVESGGGLVQAGGSLRLSCAASVSIFQVYAMGWYRQAPGKERELVAAITWSAGSTYADSVKGRFTISRDNAKNTVYLQMNSLKPEDTAVYYSAAYPYVGYVSFSAYDYWGQGTQVTVSS”, the “polyreactivity (PSR sort gate)” value was “low polyreactivity”.
For the sequence “QVQLVESGGGLVQAGGSLRLSCAASGIIFAYYAMGWYRQAPGKERELVATITSGSNTNYADSVKGRFTISRDNAQNTVYLQMNSLKPEDTAVYYWGQGTQVTVSS”, the “polyreactivity (PSR sort gate)” value was “low polyreactivity”.
For the sequence “QVQLVESGGGLVQAGGSLRLSCAASRIIFYGNAMGWYRQAHGKERELVAAIDQSGDSTYYADSVKGRFTISRDNAKNTVYLQMNSLKPEDTAVYYCAADSLYLAYEYWGQGTQVTVSS”, the “polyreactivity (PSR sort gate)” value is “high polyreactivity”.
Turning to “QVQLVESGGGLVQAGGSLRLSCAASGRTFPGNAMGWYRQAPGKERELVAAISWSGTRTYYADSVKGRFTISRDNAKNTVYLQINSLKPEDTAVYYCAARRYGVRSYGFDSWGQGTQVTVSS”, the “polyreactivity (PSR sort gate)” value was “high polyreactivity”.
For “QVQLVESGGGLVQAGGSLRLSCAASGITFYFYAMGCERQAPGKERELVAAINRSGSSTYYADSVKGRFTISRDNAKTSVYLQMNSLNPEDTAVYYFAAGWYPWAYEDWGQGTQVTVTS”, the “polyreactivity (PSR sort gate)” value is recorded as “high polyreactivity”.
Take “QVQLVESGGGLVQAGGSIRLSCAASGSIVVSYAMGWYRQAPGKERELVAAITVSGGSTYYADSVKGRFTISRDNAKNTVYLQMNSLKPEDTAVYYCAADSWDDWVVEFYYWGQGTQVNVSS”: the “polyreactivity (PSR sort gate)” value was “low polyreactivity”.
Consider “QVQLVESGGGLVQAGGSLRLSCAASGSILGLYAMGWYRQAPEKERELVAGISSGGNTNYADSVKGRFTISRDNAKNTVYLQMNSLKPEDTAVYYSYDRIYRHYSTYSWTRYDYWGEGTQVTVSS”, for which the “polyreactivity (PSR sort gate)” value is listed as “high polyreactivity”.
Consider “QVQLVESWGGLVQAGGTLRLSCAASGSTFTLNCMGWYRQAPGKERELVASITWSGGSTYYADSVKGRFTISRDNAKNTVYLQMNSLKPEDTAVYYCADDEKLYITGYDYWGQGTQVTVSS”, for which the “polyreactivity (PSR sort gate)” value was “low polyreactivity”.
Regarding “QVQLVESGGGLVQAGGSLRLSCSASGSIFFKYAMGWYRQAPGKERELVASITSRGGTTYYADSVKGRFTISRDNAKNTVYLQMNSLKPEDTAVYYCAALRRSSFGYWGQGTQVTVSS”, the “polyreactivity (PSR sort gate)” value is given as “high polyreactivity”.
As to “QVQLVESGGGLVQAGGSLRLSCAASGSTFDGYAMGWYRQAPGKERELVAAITVSVGSTYYADSVKGRFTISRDNAKNTVYLQMNSLIPEDTAVYYCAADYDYHYRYYYWGQGTQVTVSS”, the “polyreactivity (PSR sort gate)” value was “low polyreactivity”.
On to “QVQLVESGGGLVQAGGSLRLSCAASGSTFHSNAMGWYRQAPGKERELVAAISQGGGRTYYADSVKGRFTISRDNAKNTVYLQMNSLKPEDTAVYYCNRRTRGLIDGGMDYWGQGTQVTVSS”, for which the “polyreactivity (PSR sort gate)” value is reported as “low polyreactivity”.
Take “QVQLVESGGGLVQAGGSLRLSCSASGFTFSWYAMGWYRQAPGKDRELVAAINADGGTTYYADSVKGRFTISRDNAKNTVYLQMNSLKPEDTAVYYCADELSVDKYDYWGQGTQVTVSS”: the “polyreactivity (PSR sort gate)” value is on record as “low polyreactivity”.
On to “QVQLVESGGGLVQAGGSLRLSCAASGLTFGLNALGWYRQAPGKERELVAAITWSGGSTYYADSVKGRFTISRDNAKNTVYLQMNSLKPEDTAVYYCATDNWSVNGGYNYWGQGTQVTVSS”, for which the “polyreactivity (PSR sort gate)” value was “low polyreactivity”.
As for “QVQLVESGGGLVQAGGSLRLSCAASGSTFTRNAMGWYRQAPGKERELVAAISGGGGGSTYYADSVKGRFTISRDNAKNTVYLQMNSLKPEDTAVYYCAARAGRYWAAYGYWGQGTQVTVSS”, the “polyreactivity (PSR sort gate)” value is “high polyreactivity”.
Consider “QVQLVESGGGLVQAGGSLRLSCAASGNTFAPYAMGWYRQAPGKERELVATISYRGGSTNYADSVKGRFTISRDNAKNTVYLQMNSLKPEDTAVYYCNARYRWVVNRYSASGGSYNYWGQGTQVTVSS”, for which the “polyreactivity (PSR sort gate)” value was “high polyreactivity”.
Turning to “QVQLVESGGGLVQAGGSLRLSCAASGSTFVGNVMGWYRQAPGKERELVATISRSGGRTYYADSVKGRFTISRDNAKNTVYLQMNSLKPVDTAVYYCAAGFVYTTASRWGGRTRYDYWGQGTQVTVSS”, the “polyreactivity (PSR sort gate)” value is reported as “high polyreactivity”.
Consider “QVQLVESGGGLVQAGGSLRLSCAASGITFTAYAMGWYRQAPGKERELVATINSTGITNYADSVKGRFTISRDNAKNTVYLQMNSLKPEDTAVYYCAADLLDISSYDGMDYWGHGTQVTVSS”, for which the “polyreactivity (PSR sort gate)” value is given as “low polyreactivity”.
In the case of “QVHLVESGGGLVQAGGSLRLSCAASGRTFRQYAMGWNIQAPGKERELVATISSGGSTYYADSVKGRFTISRDNAKNTVYLQMNSLKPEDTSVYYCAAASGTKRLYRGTRGDYWGQGTQVTVSS”, the “polyreactivity (PSR sort gate)” value is reported as “low polyreactivity”.
Consider “QVQLVESGGGLVQAGGSLRLSCAASGYIFAINAMGWYRQAPGKERELVAAIRSGGRTYYADSVKGRFTISRDKAKNTVYLQMNSLKPEDTAVYYCNAGGKWIGSDYWGQGTQVTVSS”, for which the “polyreactivity (PSR sort gate)” value is listed as “high polyreactivity”.
The value for “QVQLVESGGGVVQAGGSLRLSCAASGRNFVYNAMGLYRQAPGKERELVAAIYSGGRTYYADSVKGRFTISRDNAKNTVYFKMYSLKPEDTAVYYCAARWYVLPTQTRPYYGYYYWGQGTQVTVSS” was “high polyreactivity”; that for “QVQLVESGGGLVQAGGSLRLSCASSGSTFFLNAMGWYRQAPGKEREFVAAISYTSTSTYYADSVKGRFTISRDNAKNTVYLQMNSLKPEDTAVYYCAVDAAGWYYTVETGDYAEDYWGQGTQVTVSS” was “low polyreactivity”.
Take “QVQLVESGGGLVQAGGSLRLSCAASGRIFRINAMGWYRQAPGKERELVASISRRGGNTYYADSVKGRFTISRDNAKNTVYLQMNSLKPEDTAVYYCAADTNLERTFDYWGQGTQVTVSS”: the “polyreactivity (PSR sort gate)” value is given as “low polyreactivity”.
In the case of “QVQLVESGGGLVQAGGSLRLSCAASGSIFVYYAMGWYRQAPGKERELVATISSDVSTYYSDSVKGRFTISRDNAKNTVYVQMNRLKPEDTAVDYCAATVSFDWAYSFSLDLEDDYWGQGTQVTVSS”, the “polyreactivity (PSR sort gate)” value is “low polyreactivity”.
Regarding “QVQLVESGGGLVQAVGSLRLSFAASGFTFGRNSLGWYRQAPGKERELVAAMTSRVGSTYYADSVKGRFTISRDKAKNTLYLQMNSLKPEDTAVYYCAAVKGPERPTTPYDYWGQGTQVTVSS”, the “polyreactivity (PSR sort gate)” value is reported as “high polyreactivity”.
The value for “QVQLVESGGGLVQAGGSLRLSCAASGRTFPRNGMGWYRQAPGKERELVAAIRYSGGSTYYADSVKGRFTISRDNAKNTVYLQMNSLKPEDTAVYYWAAGRNRAGGFGSWGQGTQVTVSS” was “high polyreactivity”; that for “QVQLVESGGGLVQAGGSLRLSCAASGFTISVYVMGWYRQAPGKERELVAAISSSGGSTYYADSVKGRFTISRDNAKNTVYLQMNSLKPEDTAVYYCNAAGYWSYAYYWGQGTQVTVSS” was “high polyreactivity”.
